Assay results published in patent US20220259301A1.

B1: Risankizumab (antibody, V domains shown)
VH: QVQLVQSGAEVKKPGSSVKVSCKASGYTFTDQTIHWMRQAPGQGLEWIGYIYPRDDSPKYNENFKGKVTITADKSTSTAYMELSSLRSEDTAVYYCAIPDRSGYAWFIYWGQGTLVTVSS
VL: DIQMTQSPSSLSASVGDRVTITCKASRDVAIAVAWYQQKPGKVPKLLIYWASTRHTGVPSRFSGSGSRTDFTLTISSLQPEDVADYFCHQYSSYPFTFGSGTKLEIKR

Biological target: human IL-23 (human) (UniProt Q9NPF7)
UniProt Q9NPF7, sequence (Q9NPF7 20-189, chain 1 of 2): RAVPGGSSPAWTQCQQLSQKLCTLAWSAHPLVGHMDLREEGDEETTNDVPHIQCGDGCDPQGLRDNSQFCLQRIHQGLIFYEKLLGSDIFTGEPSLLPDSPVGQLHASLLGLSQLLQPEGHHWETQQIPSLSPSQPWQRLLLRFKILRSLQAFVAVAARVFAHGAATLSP
UniProt Q9NPF7, sequence (chain, as listed by the source, chain 2 of 2): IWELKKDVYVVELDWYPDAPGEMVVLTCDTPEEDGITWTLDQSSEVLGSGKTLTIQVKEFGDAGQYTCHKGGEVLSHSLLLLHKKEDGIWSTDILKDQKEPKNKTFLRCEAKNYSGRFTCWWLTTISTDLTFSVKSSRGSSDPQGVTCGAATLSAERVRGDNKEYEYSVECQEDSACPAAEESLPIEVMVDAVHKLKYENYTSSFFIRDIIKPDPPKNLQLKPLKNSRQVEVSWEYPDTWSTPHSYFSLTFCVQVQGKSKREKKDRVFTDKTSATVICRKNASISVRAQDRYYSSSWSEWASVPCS

Row | Molecule | IL-23 stimulated IL-17 production [pM]
1 | ustekinumab (antibody) | 167
2 | B1 | < 10
